Square brackets hold non-standard residues; d marks the D form. Oic = O=C(O)[C@@H]1C[C@@H]2CCCC[C@@H]2N1; Tic = O=C(O)[C@@H]1Cc2ccccc2CN1; Dab = NCC[C@H](N)C(=O)O; Ac4c = NC1(C(=O)O)CCC1; Deg = CCC(N)(CC)C(=O)O; Aib = CC(C)(N)C(=O)O

The target in this experiment is human CCR10 (human) (UniProt P46092). Nature of the experiment: cell-based or functional assay.
Chain of human CCR10 (human) (P46092 whole entry): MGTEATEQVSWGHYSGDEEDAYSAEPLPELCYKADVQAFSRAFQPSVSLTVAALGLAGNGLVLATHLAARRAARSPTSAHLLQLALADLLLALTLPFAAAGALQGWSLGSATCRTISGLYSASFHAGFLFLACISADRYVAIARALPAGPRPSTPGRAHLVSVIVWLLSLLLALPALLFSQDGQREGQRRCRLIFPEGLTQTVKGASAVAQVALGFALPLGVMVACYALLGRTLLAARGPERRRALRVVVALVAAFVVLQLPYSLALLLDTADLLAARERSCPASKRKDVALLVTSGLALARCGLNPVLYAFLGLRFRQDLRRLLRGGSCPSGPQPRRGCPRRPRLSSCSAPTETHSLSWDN
For the substance “cyclo(-Phe(4CN)-Cyp-Trp-Gln-^DPro-Hyp(Bn)-) (peptide)”, the IC50 (nM) Calcium Flux Assay amounted to 21.7 nM.
As for cyclo(W[Ac4c]W[Dab][dP][Oic]), the IC50 (nM) Calcium Flux Assay amounted to 353 nM and the IC50 (nM) Chemotaxis Assay worked out at 1.7 nM.
Turning to “cyclo(-Phe(4CF3)-Cyp-Trp-Dab-^DPro-Hyp(4BrBn)-) (peptide)”, the IC50 (nM) Calcium Flux Assay came out at 22.6 nM.
As to “cyclo(-Trp-Cyp-Trp-Lys((5R)OH)-^DPro-Oic-) (peptide)”, the IC50 (nM) Calcium Flux Assay turned out to be 333 nM and the IC50 (nM) Chemotaxis Assay was 7 nM.
As for “cyclo(-Trp-Cyp-Trp-Lys(Me)-^DPro-Oic-) (peptide)”, the IC50 (nM) Chemotaxis Assay turned out to be 4.4 nM.
On to “cyclo(-Tyr(Ph)-Cyp-Trp-Dab-^DPro-Oic-) (peptide)”, for which the IC50 (nM) Calcium Flux Assay stood at 1.1 nM and the IC50 (nM) Chemotaxis Assay is 1.7 nM.
In the case of “cyclo(-Trp-Cyp-2Nal-Gln-^DPro-Oic-) (peptide)”, the IC50 (nM) Calcium Flux Assay is 35.3 nM.
Consider “cyclo(-Trp-Cyp-Trp-Lys(Nic)-^DPro-Oic-) (peptide)”, for which the IC50 (nM) Calcium Flux Assay was 49.5 nM and the IC50 (nM) Chemotaxis Assay came to 8.8 nM.
Take “cyclo(-Trp-Cyp-Phe(4CF3)-Dab-^DPro-Oic-) (peptide)”: the IC50 (nM) Calcium Flux Assay turned out to be 58.6 nM and the IC50 (nM) Chemotaxis Assay came to 38.7 nM.
On to “cyclo(-Phe(4CF3)-Cyp-Trp-3Pal-^DPic-Oic-) (peptide)”, for which the IC50 (nM) Calcium Flux Assay came out at 63.2 nM and the IC50 (nM) Chemotaxis Assay was determined as 2.7 nM.
In the case of “cyclo(-Tyr(4MeOCOBn)-Cyp-Trp-Dab-^DPro-Oic-) (peptide)”, the IC50 (nM) Calcium Flux Assay is 16.7 nM and the IC50 (nM) Chemotaxis Assay turned out to be 2.3 nM.
As for “cyclo(-Trp-Cyp-Trp-Dab-^DPro-Pro(5,5Me2)-) (peptide)”, the IC50 (nM) Calcium Flux Assay was found to be 82.5 nM and the IC50 (nM) Chemotaxis Assay was 14.2 nM.
Take “cyclo(-Trp-Cyp-Trp-Dab-^DPro-Oic-) (peptide)”: the IC50 (nM) Calcium Flux Assay stood at 123 nM and the IC50 (nM) Chemotaxis Assay stood at 29 nM.
As to “cyclo(-Trp-Cyp-Trp-Lys(4Oxa)-^DPro-Oic-) (peptide)”, the IC50 (nM) Calcium Flux Assay turned out to be 107 nM and the IC50 (nM) Chemotaxis Assay was 5.9 nM.
Consider “cyclo(-Bbta-Cyp-Trp-Dab-^DPro-Oic-) (peptide)”, for which the IC50 (nM) Calcium Flux Assay amounted to 220 nM and the IC50 (nM) Chemotaxis Assay worked out at 18.9 nM.
Consider “cyclo(-Trp-Cyp-Phe(4F)-Ser-^DPro-Oic-) (peptide)”, for which the IC50 (nM) Calcium Flux Assay is 8.8 nM and the IC50 (nM) Chemotaxis Assay came out at 12 nM.
For “cyclo(-Phe(4CN)-Cyp-Trp-Dab-^DPro-Hyp(Bn)-) (peptide)” the same measures were 181 nM and 5.3 nM.
Take “cyclo(-Trp-Cyp-Trp-Dab-^DPro-Pro((4S)cHex)-) (peptide)”: the IC50 (nM) Calcium Flux Assay stood at 54.3 nM and the IC50 (nM) Chemotaxis Assay came to 140 nM.
Turning to “cyclo(-Trp-Cyp-Trp-Dab-^DPip-Oic-) (peptide)”, the IC50 (nM) Calcium Flux Assay was 26 nM and the IC50 (nM) Chemotaxis Assay is 17 nM.
As for “cyclo(-Cha-Cyp-Trp-Dab-^DPro-Oic-) (peptide)”, the IC50 (nM) Calcium Flux Assay stood at 243 nM.
For “cyclo(-Trp-Cyp-Phe(4Cl)-Ser-^DPro-Oic-) (peptide)”, the IC50 (nM) Calcium Flux Assay turned out to be 6.1 nM and the IC50 (nM) Chemotaxis Assay stood at 2.7 nM.
For “cyclo(-Trp-Cyp-Trp-Dap((MeO(CH2)2)2)-^DPro-Oic-) (peptide)” the same measures were 399 nM and 15.2 nM.
Turning to “cyclo(-Trp-Cyp-Trp-Gln(iPr)-^DPro-Oic-) (peptide)”, the IC50 (nM) Calcium Flux Assay amounted to 25.1 nM and the IC50 (nM) Chemotaxis Assay is 1 nM.
Consider “cyclo(-Phe(4CN)-Cyp-Trp-Dab-^DPro-Oic-) (peptide)”, for which the IC50 (nM) Calcium Flux Assay was 280 nM and the IC50 (nM) Chemotaxis Assay stood at 48 nM.
“cyclo(-Trp-Cyp-Phe(4Cl)-Dab-^DPro-Hyp(Bn)-) (peptide)”: the IC50 (nM) Calcium Flux Assay came to 39.9 nM.
For the substance “cyclo(-Bip-Cyp-Trp-Dab-^DPro-Oic-) (peptide)”, the IC50 (nM) Calcium Flux Assay came out at 8.1 nM and the IC50 (nM) Chemotaxis Assay was found to be 1.8 nM.
Consider “cyclo(-Trp-Cyp-Trp-Dab((MeO(CH2)2)(Me)NCO)-^DPro-Oic-) (peptide)”, for which the IC50 (nM) Calcium Flux Assay was 8.1 nM and the IC50 (nM) Chemotaxis Assay came out at 5.6 nM.
For the substance “cyclo(-Phe(4CN)-Cyp-Trp-Ser-^DPip-Hyp(Bn)-) (peptide)”, the IC50 (nM) Calcium Flux Assay is 0.5 nM and the IC50 (nM) Chemotaxis Assay stood at 1.8 nM.
With “cyclo(-Phe(3CF3)-Cyp-Trp-Dab-^DPro-Oic-) (peptide)”, the IC50 (nM) Calcium Flux Assay was 41.1 nM and the IC50 (nM) Chemotaxis Assay came out at 3.2 nM.
With “cyclo(-Trp(5OH)-Cyp-Trp-Gln-^DPro-Thz-) (peptide)”, the IC50 (nM) Calcium Flux Assay is 144 nM and the IC50 (nM) Chemotaxis Assay was 3.1 nM.
As for “cyclo(-Trp-^DLAtc-Trp-Dab-^DPro-Oic-) (peptide)”, the IC50 (nM) Calcium Flux Assay came to 608 nM.
As to cyclo(W[Deg]W[Dab][dP][Oic]), the IC50 (nM) Calcium Flux Assay is 146 nM and the IC50 (nM) Chemotaxis Assay is 76.1 nM.
For the substance “cyclo(-Trp-Cyp-Trp-Dab-^DPro-Hyp(Ph)-) (peptide)”, the IC50 (nM) Calcium Flux Assay was 42 nM and the IC50 (nM) Chemotaxis Assay stood at 37 nM.
For “cyclo(-Trp-Cyp-Trp-Ser-^DPro-Hyp(Bn)-) (peptide)”, the IC50 (nM) Calcium Flux Assay came to 12.6 nM and the IC50 (nM) Chemotaxis Assay is 35.4 nM.
Consider “cyclo(-Trp-Cyp-Trp-Dap(MeO(CH2)2)-^DPro-Oic-) (peptide)”, for which the IC50 (nM) Calcium Flux Assay is 56.8 nM and the IC50 (nM) Chemotaxis Assay is 6.9 nM.
For “cyclo(-Trp-Cyp-Trp-hArg-^DPro-Oic-) (peptide)”, the IC50 (nM) Calcium Flux Assay was 25 nM and the IC50 (nM) Chemotaxis Assay came out at 3.7 nM.
On to cyclo(W[Aib]WR[dP][Tic]), for which the IC50 (nM) Calcium Flux Assay stood at 226 nM and the IC50 (nM) Chemotaxis Assay came to 94 nM.
For “cyclo(-Trp(5OH)-Cyp-Trp(5OH)-Dap-^DPro-Oic-) (peptide)”, the IC50 (nM) Calcium Flux Assay worked out at 246 nM.
Consider “cyclo(-Trp-Ac7c-Trp-Dab-^DPro-Oic-) (peptide)”, for which the IC50 (nM) Calcium Flux Assay came to 393 nM and the IC50 (nM) Chemotaxis Assay stood at 7.2 nM.
Regarding “cyclo(-Trp-Cyp-Trp-Dab(morphCO)-^DPro-Oic-) (peptide)”, the IC50 (nM) Calcium Flux Assay amounted to 3 nM and the IC50 (nM) Chemotaxis Assay amounted to 11.1 nM.
“cyclo(-Tyr(40HPh)-Cyp-Trp-Dab-^DPro-Oic-) (peptide)”: the IC50 (nM) Calcium Flux Assay came to 48.9 nM and the IC50 (nM) Chemotaxis Assay turned out to be 6.6 nM.
Consider “cyclo(-Trp-Cyp-Trp-Dab-^DPro-Pro((4S)F)-) (peptide)”, for which the IC50 (nM) Calcium Flux Assay was determined as 860 nM and the IC50 (nM) Chemotaxis Assay is 42 nM.
For “cyclo(-Trp-Cyp-Trp-alloThr-^DPro-Oic-) (peptide)” the same measures were 11.6 nM and 1.2 nM.
Substance “cyclo(-Nle(6OBn)-Cyp-Trp-Dab-^DPro-Oic-) (peptide)” displayed an IC50 (nM) Chemotaxis Assay of 16.6 nM.
Take “cyclo(-Trp-Cyp-Trp-Dab-^DPro-Pro((4R)4BrBn)-) (peptide)”: the IC50 (nM) Calcium Flux Assay came to 15.8 nM and the IC50 (nM) Chemotaxis Assay was determined as 9 nM.
For “cyclo(-Trp-Cyp-Trp-Gln-^DPro-Oic-) (peptide)”, the IC50 (nM) Calcium Flux Assay was 44.3 nM.
Consider “cyclo(-Trp(5OH)-Cyp-Trp-Arg-^DPro-Thz(5,5Me2)-) (peptide)”, for which the IC50 (nM) Calcium Flux Assay worked out at 214 nM and the IC50 (nM) Chemotaxis Assay amounted to 109 nM.
In the case of “cyclo(-Trp(6Cl)-Cyp-Trp-Ser-^DPro-Oic-) (peptide)”, the IC50 (nM) Calcium Flux Assay worked out at 6.3 nM and the IC50 (nM) Chemotaxis Assay is 5 nM.
For “cyclo(-2Nal-Cyp-Trp-Gln-^DPro-Tic-) (peptide)” the same measures were 9.2 nM and 2 nM.
As for “cyclo(-Trp-Cyp-Trp-Dab(4Me2NPhSO2)-^DPro-Oic-) (peptide)”, the IC50 (nM) Calcium Flux Assay was 6.4 nM.
On the same count and under the same terms, to “cyclo(-Phe(4CN)-Cyp-Trp-Ser-^DPro-Oic-) (peptide)” belongs 80.3 nM.
The same measure, in the same setting: to “cyclo(-Trp-Cyp-Phe(4F)-Dab-^DPro-Oic-) (peptide)” belongs 120 nM.
As for “cyclo(-Trp-Cyp-Tyr(Ph)-Dab-^DPro-Oic-) (peptide)”, the IC50 (nM) Calcium Flux Assay was determined as 602 nM and the IC50 (nM) Chemotaxis Assay was 208 nM.
As for “cyclo(-Trp-Chx(4-oxo)-Trp-Dab-^DPro-Oic-) (peptide)”, the IC50 (nM) Calcium Flux Assay turned out to be 262 nM and the IC50 (nM) Chemotaxis Assay came out at 17.8 nM.
On to “cyclo(-Trp-Cyp-Trp-Dab-^DPro-Hyp-) (peptide)”, for which the IC50 (nM) Calcium Flux Assay came out at 190 nM.
For the substance “cyclo(-Trp-Cyp-Trp-Dab-^DPro-Thz-) (peptide)”, the IC50 (nM) Calcium Flux Assay was determined as 134 nM and the IC50 (nM) Chemotaxis Assay was determined as 19.6 nM.
On to “cyclo(-Trp(6Cl)-Cyp-Trp-Dab-^DPro-Hyp(Bn)-) (peptide)”, for which the IC50 (nM) Calcium Flux Assay turned out to be 8.5 nM and the IC50 (nM) Chemotaxis Assay amounted to 8.6 nM.
Turning to “cyclo(-Trp-Cyp-Trp-Dab(MeSO2)-^DPro-Oic-) (peptide)”, the IC50 (nM) Calcium Flux Assay came to 0.2 nM and the IC50 (nM) Chemotaxis Assay was 3.4 nM.
The like results for “cyclo(-Trp-Cyp-Trp-Dab-^DPro-Hyp(3CNBn)-) (peptide)” were, in that order, 127 nM and 50.7 nM.
As for “cyclo(-Trp-Cyp-Trp-Thr-^DPro-Oic-) (peptide)”, the IC50 (nM) Calcium Flux Assay came out at 20.4 nM and the IC50 (nM) Chemotaxis Assay stood at 5.4 nM.
The like results for “cyclo(-Phe(4CN)-Cyp-Trp-Ser-^DPro-Hyp(4BrBn)-) (peptide)” were, in that order, 5.3 nM and 0.6 nM.
The like results for “cyclo(-Trp-4,4-AC-ThioTHP-Trp-Dab-^DPro-Oic-) (peptide)” were, in that order, 823 nM and 21.9 nM.
For “cyclo(-Trp-Cyp-Trp-Met(O2)-^DPro-Oic-) (peptide)”, the IC50 (nM) Calcium Flux Assay worked out at 4.8 nM and the IC50 (nM) Chemotaxis Assay came to 1.2 nM.
Turning to “cyclo(-Trp-Cyp-Trp-Ser-^DPip-Oic-) (peptide)”, the IC50 (nM) Calcium Flux Assay is 6.9 nM and the IC50 (nM) Chemotaxis Assay is 9.6 nM.
On to “cyclo(-Trp(5OH)-Chx-Trp(5OH)-Arg-^DPro-Oic-) (peptide)”, for which the IC50 (nM) Calcium Flux Assay worked out at 548 nM and the IC50 (nM) Chemotaxis Assay was 11.6 nM.

Source of the values: patent publication US20120283168A1.
